Measurements published in the PETadex activity labels (doi:10.1111/febs.16924).

B1: unnamed (protein)
chain: MAENPYERGPAPTTSSIEASRGSFATSTVTVSRLAVSGFGGGTIYYPTSTTAGTFGAISIAPGFTALQSSIAWLGPRLASQGFVVFTIDTLTTSDQPDSRGRQLLAALDYLTQQSSVRSRIDSSRLGVVGHSMGGGGTLEAARSRPSLQAAIPLTGWNLTKTWSTVRVPTLVVGAQADTVAPVASHSIPFYNSLPSSLDKAYLELRGASHFAPNSSNTTIAKYTLSWLKRFIDNDTRYEQFLCPIPSTSLSISDYRGNCPHNG
B2: unnamed (protein)
chain: MDGVLWRVRTAALMAALLALAAWALVWASPSVEAQSNPYQRGPNPTRSALTADGPFSVATYTVSRLSVSGFGGGVIYYPTGTSLTFGGIAMSPGYTADASSLAWLGRRLASHGFVVLVINTNSRFDYPDSRASQLSAALNYLRTSSPSAVRARLDANRLAVAGHSMGGGGTLRIAEQNPSLKAAVPLTPWHTDKTFNTSVPVLIVGAEADTVAPVSQHAIPFYQNLPSTTPKVYVELDNASHFAPNSNNAAISVYTISWMKLWVDNDTRYRQFLCNVNDPALSDFRTNNRHCQ
B3: unnamed (protein)
chain: MNFPRASRLMQAAVLGGLMAVSAAATAQTNPYARGPNPTAASLEASAGPFTVRSFTVSRPSGYGAGTVYYPTNAGGTVGAIAIVPGYTARQSSIKWWGPRLASHGFVVITIDTNSTLDQPSSRSSQQMAALRQVASLNGTSSSPIYGKVDTARMGVMGWSMGGGGSLISAANNPSLKAAAPQAPWDSSTNFSSVTVPTLIFACENDSIAPVNSSALPIYDSMSRNAKQFLEINGGSHSCANSGNSNQALIGKKGVAWMKRFMDNDTRYSTFACENPNSTRVSDFRTANCS

How the values were obtained:
pNP-C12 = settings: pH 8; 30 °C
[1] = substrate: Polyester-polyurethane (Impranil DLN); assay: Proxy for plastic degradation [Proton (H+) release, phenol red pH-indicator assay]; settings: 40 °C
PET [2] = assay: Proxy for plastic degradation [Released monomer concentration (HPLC/LC-MS) (TPA+MHET+BHET)] (µmol TPA-EG / mg enzyme / day); settings: pH 8
PET [3] = assay: Proxy for plastic degradation [Released monomer concentration (UHPLC) (TPA+MHET+BHET, as TPA-EG units)] (µmol TPA-EG/mg enzyme/day); settings: pH 8

Protein	Km (pNP-C12) [µM]	kcat (pNP-C12) [s⁻¹]	kcat/Km (pNP-C12) [M⁻¹ s⁻¹]	Proxy for plastic degradation [1] [µM]	Proxy for plastic degradation (PET [2])	Proxy for plastic degradation (PET [3]; 40 °C)	Proxy for plastic degradation (PET [3]; 50 °C)	Proxy for plastic degradation (PET [2]; part of the chain shown)	Proxy for plastic degradation (PET [3]; 30 °C, part of the chain shown)
B1	730	8.26	11300	790	0.17	0.17			
B2					12.8		12.8		
B3								4.33	4.33
